Data: patent US20250283871A1, “COMPOSITIONS AND METHODS FOR MODULATING THE INTERACTION BETWEEN SS18-SSX FUSION ONCOPROTEIN AND NUCLEOSOMES” (Dana-Farber Cancer Institute, Inc., priority 2020, published 2025)

How the values were obtained:
[1] = biological target: QCR2_HUMAN Cytochrome b-c1 complex subunit 2, mitochondrial (human) (UniProt P22695); assay: anti-SMARCA4 (BRG1) IP, mass spectrometry, Aska-SS cells
[2] = biological target: TNR6B_HUMAN Trinucleotide repeat-containing gene 6B protein (human) (UniProt Q9UPQ9); assay: as above
[3] = biological target: TRA2B_HUMAN Transformer-2 protein homolog beta (human) (UniProt P62995); assay: as above
[4] = biological target: TSP1_HUMAN Thrombospondin-1 (human) (UniProt P07996); assay: as above
[5] = biological target: UBC_HUMAN Polyubiquitin-C (human) (UniProt P0CG48); assay: as above
[6] = biological target: UBP2L_HUMAN Isoform 5 of Ubiquitin-associated protein 2-like (human) (UniProt Q14157); assay: as above
[7] = biological target: UCRIL HUMAN Putative cytochrome b-c1 complex subunit Rieske-like protein 1 (human) (UniProt P0C7P4); assay: as above
[8] = biological target: URB2_HUMAN Unhealthy ribosome biogenesis protein 2 homolog (human) (UniProt Q14146); assay: as above
[9] = biological target: VIME_HUMAN Vimentin (human) (UniProt P08670); assay: as above
[10] = biological target: XRN2_HUMAN 5'-3' exoribonuclease 2 (human) (UniProt Q9H0D6); assay: as above
[11] = biological target: YLPM1_HUMAN Isoform 4 of YLP motif-containing protein 1 (human) (UniProt P49750); assay: as above
[12] = biological target: ZC11A_HUMAN Zinc finger CCCH domain-containing protein 11A (human) (UniProt O75152); assay: as above
[13] = biological target: ZN326_HUMAN DBIRD complex subunit ZNF326 (human) (UniProt Q5BKZ1); assay: as above
[14] = biological target: QCR2_HUMAN Cytochrome b-c1 complex subunit 2, mitochondrial (human) (UniProt P22695); assay: anti-SMARCA4 (BRG1) IP, mass spectrometry, HEK-293T cells
[15] = biological target: TNR6B_HUMAN Trinucleotide repeat-containing gene 6B protein (human) (UniProt Q9UPQ9); assay: as above
[16] = biological target: TRA2B_HUMAN Transformer-2 protein homolog beta (human) (UniProt P62995); assay: as above
[17] = biological target: TSP1_HUMAN Thrombospondin-1 (human) (UniProt P07996); assay: as above
[18] = biological target: UBC_HUMAN Polyubiquitin-C (human) (UniProt P0CG48); assay: as above
[19] = biological target: UBP2L_HUMAN Isoform 5 of Ubiquitin-associated protein 2-like (human) (UniProt Q14157); assay: as above
[20] = biological target: UCRIL HUMAN Putative cytochrome b-c1 complex subunit Rieske-like protein 1 (human) (UniProt P0C7P4); assay: as above
[21] = biological target: URB2_HUMAN Unhealthy ribosome biogenesis protein 2 homolog (human) (UniProt Q14146); assay: as above
[22] = biological target: VIME_HUMAN Vimentin (human) (UniProt P08670); assay: as above
[23] = biological target: XRN2_HUMAN 5'-3' exoribonuclease 2 (human) (UniProt Q9H0D6); assay: as above
[24] = biological target: YLPM1_HUMAN Isoform 4 of YLP motif-containing protein 1 (human) (UniProt P49750); assay: as above
[25] = biological target: ZC11A_HUMAN Zinc finger CCCH domain-containing protein 11A (human) (UniProt O75152); assay: as above
[26] = biological target: ZN326_HUMAN DBIRD complex subunit ZNF326 (human) (UniProt Q5BKZ1); assay: as above
[27] = biological target: ARI1B_HUMAN Isoform 3 of AT-rich interactive domain-containing protein 1B (human) (UniProt Q8NFD5); assay: MS of BAF complexes from Aska-SS cells, shControl against shSS18-SSX, Rep 2
[28] = biological target: BCL7B (human) (UniProt Q9BQE9); assay: as above
[29] = biological target: SMCE1_HUMAN SWI/SNF-related matrix-associated actin-dependent regulator of chromatin subfamily E member 1 (human) (UniProt Q969G3); assay: as above
[30] = biological target: SMRC1_HUMAN SWI/SNF complex subunit SMARCC1 (human) (UniProt Q92922); assay: as above
[31] = biological target: SNF5_HUMAN Isoform B of SWI/SNF-related matrix-associated actin-dependent regulator of chromatin subfamily B member 1 (human) (UniProt Q12824); assay: as above

SMCA4_HUMAN Transcription activator BRG1 (from UniProt P51532 1-1647) (enzyme)
NSAF [1]: 0 | NSAF [2]: 0 | NSAF [3]: 0 | NSAF [4]: 0 | NSAF [5]: 0 | NSAF [6]: 0 | NSAF [7]: 0 | NSAF [8]: 0 | NSAF [9]: 0 | NSAF [10]: 0 | NSAF [11]: 0 | NSAF [12]: 0 | NSAF [13]: 0 | NSAF [14]: 0 | NSAF [15]: 3.4e-05 | NSAF [16]: 0 | NSAF [17]: 0 | NSAF [18]: 9.09e-05 | NSAF [19]: 5.64e-05 | NSAF [20]: 0 | NSAF [21]: 4.08e-05 | NSAF [22]: 0 | NSAF [23]: 6.55e-05 | NSAF [24]: 0.000116 | NSAF [25]: 7.68e-05 | NSAF [26]: 0.000749 | LFQ intensity ratio Aska (shControl)/Aska (shSS18-SSX), norm to SMARCA4 [27]: 0.65 | LFQ intensity ratio Aska (shControl)/Aska (shSS18-SSX), norm to SMARCA4 [28]: 1.13 | LFQ intensity ratio Aska (shControl)/Aska (shSS18-SSX), norm to SMARCA4 [29]: 0.855 | LFQ intensity ratio Aska (shControl)/Aska (shSS18-SSX), norm to SMARCA4 [30]: 0.622 | LFQ intensity ratio Aska (shControl)/Aska (shSS18-SSX), norm to SMARCA4 [31]: 0.0637
